This is an account of results in US20120149875A1.

Experiment [1] deals with Fc-Fusion Protein (human soluble TNFα receptor linked to the Fc component of human immunoglobulin G1) (human) [IgG part: P01857]. The experiment can be described thus: frontal analysis with CHO supernatant feed, fractions analysed on HiTrap MabSelect SuRe, residence time 6 min.
For experiment [2] the target is unchanged. The experiment can be described thus: frontal analysis with CHO supernatant feed, Z4 medium of low ligand density, residence time 2.4 min.
For experiment [3] the target is unchanged. The experiment can be described thus: frontal analysis with CHO supernatant feed, fractions analysed on HiTrap MabSelect SuRe, residence time 2.4 min.
The target is the same in experiment [4]. The experiment can be described thus: frontal analysis with CHO supernatant feed, Z4 medium of low ligand density, residence time 6 min.

Turning to “Z4, tetramer of alkaline stabilized protein A (SuRe ligand domain / Z domain), MabSelect SuRe (designed binder)”, the DBC10% (dynamic binding capacity at 10% breakthrough) in experiment [1] is 10 mg/mL; in experiment [2] it was 5 mg/mL; in experiment [3] it was 6 mg/mL; in experiment [4] it was 9 mg/mL.
